Values of other authors as cited in article PMC2983480.

Target: Arp2/3 complex (Bos taurus) (UniProt A7MB62)

Kd: 900 nM
Substance: WASp VCA (from UniProt P42768)
